Results taken from patent US20210179706A1 (AKESO BIOPHARMA, published 2021).

Key:
human IL-1β-His-Bio [1] = target: T1, human IL-1β-His-Bio (human, UniProt P01584 117-269, limits assumed, biotinylated with EZ-Link Sulfo-NHS-LC-Biotinylation Kit (sites not given)); experiment: ELISA, IL-1β-His-Bio captured on streptavidin; antibody 0.012 µg/mL
T1 construct: also called biotinylated human IL-1β-His; not shown: His tag

human IL-1β-His-Bio [2] = target: T1, human IL-1β-His-Bio; experiment: ELISA, IL-1β-His-Bio captured on streptavidin; 4-parameter fit
Method: A plate was coated with 50 μL of 2 μg/mL SA (streptavidin) in each well, and incubated overnight at 4° C. After the plate was washed once and the residual liquid was removed, each well was blocked with 300 μL of 1% BSA solution (dissolved in PBS) and the plate was incubated at 37° C. for 2 h. The plate was washed three times and the residual liquid was removed. Human IL-1β-His-Bio in each well was diluted with 50 μL of PBST to 0.2 μg/mL, and the plate was incubated at 37° C. for 30 min. Then the plate was washed three times and the residual liquid was removed. […] Two duplicate wells were set for the above concentrations, with a final volume of 100 μL per well, and the plate was incubated at 37° C. for 30 min. […] After the plate was washed four times and the residual liquid was removed, 50 μL of TMB chromogenic solution was added to each well for color developing for 5 min away from light at room temperature, then 50 μL of stop solution was added to each well to stop the reaction. Then the plate was put into a plate reader immediately, and the OD value of each well in the plate was read at 450 nm.
SoftMax Pro 6.2.1 software was used to analyze and process the data. 4-parameter fitted curves were plotted using the antibody concentration as the abscissa and the absorbance as the ordinate.

human IL-1β-hFc = target: T2, human IL-1β-hFc (human, UniProt P01584 117-269, limits assumed); experiment: competition ELISA on coated IL-1β-hFc, competitor IL-1R1(1-332)-his; 4-parameter fit
T2 construct: also called human IL-1f3-hFc [sic]; not shown: human IgG Fc purification tag

B1: anti-IL-1β murine monoclonal antibody 3H6 (antibody, V domains shown)
VH: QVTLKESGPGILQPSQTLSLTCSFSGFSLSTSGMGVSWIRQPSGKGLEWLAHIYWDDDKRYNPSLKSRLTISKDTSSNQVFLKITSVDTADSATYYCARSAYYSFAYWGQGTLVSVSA
VL: DIVMTQSHKFMSTSVGGRVRITCKASQDVDTDVAWFQQKPGQSPKLLIYWASTRHTGVPDRFTGSGSGTDFTLTISNVQSEDLADYFCQQYSSYPTFGAGTKLELK
notes: Mouse monoclonal antibody purified from hybridoma supernatant on protein A; also called antibody secreted by hybridoma cell line LT010 (IL-1β-3H6), CCTCC NO: C2018133
- OD (450 nm) (human IL-1β-His-Bio [1]): 1.23 OD450
- EC50 (human IL-1β-His-Bio [2]): 99 pM
- EC50 (human IL-1β-hFc): 137 pM
